Experiments:
Assay in all cases: cell_activity
[1] = test system: ssTTN 5.1 L TALEN (Xanthomonas (engineered)?); conditions: as pair with 5.1 R; TALEN mRNA transfected
[2] = test system: ssTTN 5.1 R TALEN (Xanthomonas (engineered)?); conditions: as pair with 5.1 L; TALEN mRNA transfected
[3] = test system: ssTTN 3.1 L TALEN (Xanthomonas (engineered)?); conditions: as pair with 3.1 R; TALEN mRNA transfected
[4] = test system: ssTTN 3.1 R TALEN (Xanthomonas (engineered)?); conditions: as pair with 3.1 L; TALEN mRNA transfected
[5] = test system: ssBAG3 4.1 L TALEN (Xanthomonas (engineered)?); conditions: as pair with 4.1 R; transfected cells
[6] = test system: ssBAG3 4.1 R TALEN (Xanthomonas (engineered)?); conditions: as pair with 4.1 L; transfected cells

In the case of “CAGTCATGCAATTTT (double strand) [ssTTN 5.1 L site]”, the activity [1] is reported as 44.9 % editing.

Sequence “CCAATTCCCAAGTAAT (double strand) [ssTTN 5.1 R site]” has an activity [2] of 44.9 % editing.

With “GTCATATCCATAAAAAAC (double strand) [ssTTN 3.1 L site]” the activity [3] was 60 % editing.

“GTCCTAACATTTTATAT (double strand) [ssTTN 3.1 R site]” showed an activity [4] of 60 % editing.

“TGAAGGCAAGAAGACAGAC (double strand) [ssBAG3 4.1 L site]” showed an activity [5] of 21.3 % editing.

Sequence “TGGTCAAATACTCTTCTAT (double strand) [ssBAG3 4.1 R site]” has an activity [6] of 21.3 % editing.
